This is an account of results in US20240124575A1 (SIMCERE ZAIMING PHARMACEUTICAL, published 2024).

Where two headings read alike, the source gives them in different places.

Experiment [1] concerns the target T1, human CD33-His (extracellular domain Asp 18-His 259) (human, UniProt P20138 18-259).
T1 construct: range 18-259; bought protein; also called hCD33-his; human CD33 protein; not shown: His tag
The experiment is described as follows: competitive ELISA vs coated S006-NB147-220 3ug/mL; soluble 25ug/ml. In general terms: An ELISA detects its analyte on a solid surface through an enzyme-linked reagent.

Experiment [2] concerns the target T1, human CD33-His (extracellular domain …). The experiment is described as follows: competitive ELISA vs coated S006-NB146-139 3ug/mL; soluble 25ug/ml.
The target is the same in experiment [3]. The experiment is described as follows: competitive ELISA vs coated S006-NB146-69 3ug/mL; soluble 25ug/ml.
For experiment [4] the target is unchanged. As to the kind of experiment: competitive ELISA vs coated S006-NB147-25 3ug/mL; soluble 25ug/ml.
Experiment [5] has the same target. As to the kind of experiment: ELISA, antigen coated. Here is the method: (§1) In order to assay the binding activity of VHH-Fc to human CD33 protein, a human CD33-his protein (purchased from ACROBiosystems, Cat. No. CD3-H5226) was diluted with PBS to make a final concentration of 2 μg/mL, and then added into a 96-well ELISA plate at 100 μL/well. The plate was sealed with a plastic film and incubated at 4° C. overnight, washed twice with PBS the next day, and a blocking solution [PBS+2% (w/w) BSA] was added for blocking at room temperature for 2 h. The blocking solution was discarded, and VHH-Fc antibody or negative control antibody serially diluted from 100 nM was added at 50 μL/well. After incubation at 37° C. for 2 h, the plate was washed 3 times with PBS. A secondary antibody labeled with HRP (horseradish peroxidase) (purchased from Sigma, Cat. No. A0170) was added. After incubation for 1 h at 37° C., the plate was washed 5 times with PBS. A TMB substrate was added at 50 μL/well. After incubation at room temperature for 10 min, a stop solution (1.0 N HCl) was added at 50 μL/well. The OD450 nm values were read on an ELISA plate reader (Multimode Plate Reader, EnSight, purchased from Perkin Elmer). The assay results for the binding of the VHH-Fc to hCD33-his by ELISA are shown in FIGS. 7A and 7B and Tables 11 and 12. […] The IgG control was hIgG1, and the data in the table are OD450 nm values.

For experiment [6] the target is unchanged. The experiment is described as follows: ELISA, antigen coated. The protocol: as §1
This is another data set of the same source.

In a further experiment the target is T2, human CD33-his protein (human, UniProt P20138 18-259).
T2 construct: range 18-259; bought protein; also called hCD33-his; recombinant human CD33-his; not shown: His tag
T2 sequence (P20138 18-259 limits assumed): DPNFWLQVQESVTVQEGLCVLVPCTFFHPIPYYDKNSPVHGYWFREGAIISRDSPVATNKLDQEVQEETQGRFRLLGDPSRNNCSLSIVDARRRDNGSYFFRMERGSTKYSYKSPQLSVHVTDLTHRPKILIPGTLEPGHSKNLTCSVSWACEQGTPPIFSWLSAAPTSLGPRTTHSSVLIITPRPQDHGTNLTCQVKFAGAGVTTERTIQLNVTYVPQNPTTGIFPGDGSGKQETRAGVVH
The experiment is described as follows: competition ELISA, coated human CD33-his, vs Biotin-C33B904 at EC80; antibody 31.25 nM. Here is the method:
as §1, with “The” for “In order to assay the binding activity of VHH-Fc to human CD33 protein, a human CD33-his protein (purchased from ACROBiosystems, Cat. No. CD3-H5226) was diluted with PBS to make a final concentration of 2 μg/mL, and then added into a 96-well ELISA plate at 100 μL/well. The”
ELISA plates were coated with 2 μg/mL human CD33-his protein according to the method in Example 5.1; the Biotin-C331B904 antibody was subjected to a gradient dilution from 15 μg/mL, and EC80 values (0.18 μg/mL) were calculated. […] OD_{450 nm} values were read using an ELISA plate reader (Insight, purchased from PerkinElmer). […]

T1 sequence (P20138 18-259 limits assumed): as above

B1: C33B904 hIgG1 (antibody, V domains shown)
VH: EVQLVESGGGLVQPGRSLRLSCAASGFTFDDYAMHWVRQAPGKGLEWVSGIGWSGGSIVYADSVKGRFTISRDNAKNSLYLQMNSLRAEDTALYYCAKDSPYGDFFDYWGQGTLVTVSS
VL: DIVMTQSPDSLAVSLGERATINCKSSQTVFYSSNNKNYLAWYQQKPGQPPKLLISWASTRKSGVPDRFSGSGSGTDFTLTVSSLQAEDVAVYYCQHYYSTPYTFGQGTKLEIKR
notes: intact human IgG1; variable regions from US20190382481A1; also called C33B3904; C331B904
For the molecule B1, the inhibition rate in experiment [1] amounted to 98%. In addition, in experiment [2], the inhibition rate is 101%. The inhibition rate in experiment [3] came to 99%. The inhibition rate in experiment [4] was 99%. For the same molecule, in experiment [5], the “OD450 at 0.0001 nM” value worked out at 0.04 OD450, the “OD450 at 0.001 nM” value came to 0.06 OD450, the “OD450 at 0.01 nM” value came to 0.08 OD450 and the “OD450 at 0.1 nM” value was 0.28 OD450. Besides, in experiment [5], the “OD450 at 1 nM” value was 1.39 OD450, the “OD450 at 10 nM” value was 2.6 OD450 and the “OD450 at 100 nM” value came to 2.96 OD450. Further, in experiment [6], the “OD450 at 0.0001 nM” value was 0.04 OD450, the “OD450 at 0.001 nM” value was determined as 0.05 OD450, the “OD450 at 0.01 nM” value came to 0.14 OD450 and the “OD450 at 0.1 nM” value came to 0.53 OD450. Besides, in experiment [6], the “OD450 at 1 nM” value turned out to be 1.92 OD450, the “OD450 at 10 nM” value amounted to 2.55 OD450 and the “OD450 at 100 nM” value worked out at 2.61 OD450.

B2: C33B904 (antibody, human IgG1, kappa, V domains shown)
VH: EVQLVESGGGLVQPGRSLRLSCAASGFTFDDYAMHWVRQAPGKGLEWVSGIGWSGGSIVYADSVKGRFTISRDNAKNSLYLQMNSLRAEDTALYYCAKDSPYGDFFDYWGQGTLVTVSS
VL: DIVMTQSPDSLAVSLGERATINCKSSQTVFYSSNNKNYLAWYQQKPGQPPKLLISWASTRKSGVPDRFSGSGSGTDFTLTVSSLQAEDVAVYYCQHYYSTPYTFGQGTKLEIKR
notes: control antibody, intact human IgG1 form; variable regions from US20190382481A1; also called C33B904 hIgG1; C331B904
As to B2, the “OD450 (Biotin-C33B904 signal)” value in the experiment with human CD33-his protein was determined as 0.46.
